Data reported in publication PMC3048791.
Several values for one entry are separate records, joined by “and”; a condition that tells them apart may be missing. Identical values can stand only once.

Target: recombinant ATcpnβ thermosome subunit from Acidianus tengchongensis strain S5 (Acidianus tengchongensis strain S5)
Assay: cryo-EM structure

subunits per ring (symmetry of top views): 9 and 10
Substance: recombinant ATcpnβ thermosome subunit from Acidianus tengchongensis strain S5 (natural protein)
